Data reported in patent US20180036441A1 (Dana-Farber, published 2018).
Numbering of substitutions follows the chain as printed.

Tests used:
[1] = biological target: T1, MUC1 on HCT116/MUC1 cells (UniProt P15941 24-1255, limits assumed); assay: FACS titration, HCT116/MUC1 cells, antibody at 500 nM
T1 construct: whole, on cells; also called MUC1 overexpressed cell line
Protocol: (§1) To assess cell binding, 2×10⁵ HCT116/MUC1 cells per well were washed with PBS twice and incubated in 200 μl of serial dilutions of chimeric or humanized antibodies for 1 hour at room temperature. After washing 3 times with PBS, secondary antibody (2 μg/ml Alexa Flour®488 goat anti-human IgG) was added to cells and incubated for 30 minutes at room temperature. After washing with PBS, cells were analyzed by using FACSCalibur (BD Bioscience, San Jose, Calif.) and Flowjo software.

[2] = biological target: T1, MUC1 on HCT116/MUC1 cells; assay: FACS titration, HCT116/MUC1 cells, antibody at 0.488 nM
Protocol: as §1

[3] = biological target: T1, MUC1 on HCT116/MUC1 cells; assay: FACS titration, HCT116/MUC1 cells, antibody at 15.625 nM
Protocol: as §1

[4] = biological target: T1, MUC1 on HCT116/MUC1 cells; assay: FACS titration, HCT116/MUC1 cells, antibody at 7.812 nM
Protocol: as §1

[5] = biological target: T1, MUC1 on HCT116/MUC1 cells; assay: FACS titration, HCT116/MUC1 cells, antibody at 1.953 nM
Protocol: as §1

[6] = biological target: T1, MUC1 on HCT116/MUC1 cells; assay: FACS titration, HCT116/MUC1 cells, antibody at 31.25 nM
Protocol: as §1

[7] = biological target: T1, MUC1 on HCT116/MUC1 cells; assay: FACS titration, HCT116/MUC1 cells, antibody at 250 nM
Protocol: as §1

[8] = biological target: T1, MUC1 on HCT116/MUC1 cells; assay: FACS titration, HCT116/MUC1 cells, antibody at 3.906 nM
Protocol: as §1

[9] = biological target: T1, MUC1 on HCT116/MUC1 cells; assay: FACS titration, HCT116/MUC1 cells, antibody at 0.244 nM
Protocol: as §1

[10] = biological target: T1, MUC1 on HCT116/MUC1 cells; assay: FACS titration on HCT116/MUC1 cells
Protocol: as §1

[11] = biological target: T1, MUC1 on HCT116/MUC1 cells; assay: FACS titration, HCT116/MUC1 cells, antibody at 62.5 nM
Protocol: as §1

[12] = biological target: T1, MUC1 on HCT116/MUC1 cells; assay: FACS titration, HCT116/MUC1 cells, antibody at 0.977 nM
Protocol: as §1

[13] = biological target: T1, MUC1 on HCT116/MUC1 cells; assay: FACS titration, HCT116/MUC1 cells, antibody at 125 nM
Protocol: as §1

MUC1-SEA-His protein = biological target: T2, MUC1-SEA-His protein (UniProt P15941 1039-1148, limits assumed); assay: SPR Biacore T200, antibody captured, antigen as analyte
T2 construct: domain: SEA; Recombinant antigen used for ELISA coating and as Biacore analyte; also called MUC-SEA-His; antigen protein; not shown: His tag
T2 sequence (looked up): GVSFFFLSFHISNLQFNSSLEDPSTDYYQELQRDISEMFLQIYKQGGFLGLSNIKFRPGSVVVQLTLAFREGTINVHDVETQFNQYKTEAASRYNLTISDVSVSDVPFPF
Protocol: Antibody affinity was determined using a Surface Plasmon Resonance (SPR) biosensor, Biacore T200 (GE Healthcare). Antibody was immobilized on the sensor chip through Fc capture method. Antigen protein was used as the analyte. The data of dissociation (kd) and association (ka) rate constants were obtained using Biacore T200 evaluation software. The apparent equilibrium dissociation constants (KD) were calculated from the ratio of kd over ka. For affinity ranking, twenty-five humanized antibodies plus chimericantibody were injected and captured on sensor chip individually. The antibodies were ranked based on their dissociation rates (kd).

T1 sequence (P15941 24-1255 limits assumed): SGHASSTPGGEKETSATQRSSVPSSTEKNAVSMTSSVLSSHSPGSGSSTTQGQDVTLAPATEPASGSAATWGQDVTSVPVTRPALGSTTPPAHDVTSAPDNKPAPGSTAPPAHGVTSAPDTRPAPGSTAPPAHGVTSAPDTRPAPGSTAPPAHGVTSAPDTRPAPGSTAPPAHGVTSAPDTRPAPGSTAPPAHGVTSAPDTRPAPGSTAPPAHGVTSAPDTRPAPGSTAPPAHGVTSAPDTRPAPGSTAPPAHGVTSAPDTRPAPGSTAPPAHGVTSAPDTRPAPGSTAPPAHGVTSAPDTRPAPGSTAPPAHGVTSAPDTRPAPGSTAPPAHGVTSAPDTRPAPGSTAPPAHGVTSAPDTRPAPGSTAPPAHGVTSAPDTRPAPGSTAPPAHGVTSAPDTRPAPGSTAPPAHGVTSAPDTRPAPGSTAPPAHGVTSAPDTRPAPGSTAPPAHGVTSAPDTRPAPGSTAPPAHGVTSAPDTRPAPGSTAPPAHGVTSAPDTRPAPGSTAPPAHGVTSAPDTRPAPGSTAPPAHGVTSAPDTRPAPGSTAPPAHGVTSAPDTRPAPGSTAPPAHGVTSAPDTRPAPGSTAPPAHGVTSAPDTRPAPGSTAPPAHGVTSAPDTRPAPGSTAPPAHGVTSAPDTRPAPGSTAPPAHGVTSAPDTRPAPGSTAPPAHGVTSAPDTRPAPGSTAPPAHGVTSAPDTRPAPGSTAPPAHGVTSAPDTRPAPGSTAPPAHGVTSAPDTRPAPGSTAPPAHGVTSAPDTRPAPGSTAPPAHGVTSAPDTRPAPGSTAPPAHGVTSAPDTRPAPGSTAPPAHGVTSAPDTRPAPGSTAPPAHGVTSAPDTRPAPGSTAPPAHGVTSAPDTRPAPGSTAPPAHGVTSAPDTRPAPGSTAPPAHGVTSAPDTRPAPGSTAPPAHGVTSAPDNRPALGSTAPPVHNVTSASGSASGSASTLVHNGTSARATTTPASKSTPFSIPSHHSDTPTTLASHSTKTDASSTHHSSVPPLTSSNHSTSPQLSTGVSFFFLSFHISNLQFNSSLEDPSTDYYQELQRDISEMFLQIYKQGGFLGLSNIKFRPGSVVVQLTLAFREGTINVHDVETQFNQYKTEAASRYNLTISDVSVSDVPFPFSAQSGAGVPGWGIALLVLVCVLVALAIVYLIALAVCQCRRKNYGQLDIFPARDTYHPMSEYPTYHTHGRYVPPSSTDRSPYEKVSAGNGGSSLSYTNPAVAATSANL

B1: VH5 + VL1 (antibody, V domains shown)
VH: EVQLVQSGAEVKKPGESLKISCKGSGYAFSNFWMNWVRQMPGKGLEWMGQIYPGDGDTNYNGKFKGQVTISADKSISTAYLQWSSLKASDTAMYYCARSYYRSAWFAYWGQGTLVTVSL
VL: EIVLTQSPDFQSVTPKEKVTITCRASQSIGTSIHWYQQKPDQSPKLLIKYASESISGVPSRFSGSGSGTDFTLTINSLEAEDAATYYCQQSNNWPLTFGQGTKVEIK
notes: Humanized IgG expressed in HEK293; also called humanized antibody VH5+VL1
- geometric mean [1]: 316
- geometric mean [2]: 2.93
- geometric mean [3]: 91.2
- geometric mean [4]: 29.7
- geometric mean [5]: 7.02
- geometric mean [6]: 219
- geometric mean [7]: 327
- geometric mean [8]: 20
- geometric mean [9]: 2.67
- EC50 [10]: 23.6 nM
- geometric mean [11]: 291
- geometric mean [12]: 4.25
- geometric mean [13]: 326
- koff (MUC1-SEA-His protein): 0.00192 s⁻¹

B2: VH2 + VL4 (antibody, V domains shown)
VH: QVQLVQSGAEVKKPGASVKVSCKASGYAFSNFWMNWVRQAPGQGLEWMGQIYPGDGDTNYNGKFKGRVTMTRDTSTSTVYMELSSLRSEDTAVYYCARSYYRSAWFAYWGQGTLVTVSS
VL: AIQLTQSPSSLSASVGDRVTITCRASQSIGTSIHWYQQKPGKAPKLLIYYASESISGVPSRFSGSGSGTDFTLTISSLQPEDFATYYCQQSNNWPLTFGGGTKVEIK
notes: Humanized IgG expressed in HEK293; also called humanized antibody VH2+VL4
- geometric mean [1]: 212
- geometric mean [2]: 3.16
- geometric mean [3]: 28.4
- geometric mean [4]: 19
- geometric mean [5]: 5.22
- geometric mean [6]: 74.6
- geometric mean [7]: 216
- geometric mean [8]: 9.37
- geometric mean [9]: 2.88
- EC50 [10]: 41.3 nM
- geometric mean [11]: 161
- geometric mean [12]: 3.76
- geometric mean [13]: 188
- koff (MUC1-SEA-His protein): 0.00741 s⁻¹

B3: VH2 + VL3 (antibody, V domains shown)
VH: B2 VH
VL: EIVLTQSPATLSLSPGERATLSCRASQSIGTSIHWYQQKPGQAPRLLIYYASESISGIPARFSGSGSGTDFTLTISSLEPEDFAVYYCQQSNNWPLTFGGGTKVEIK
notes: Humanized IgG expressed in HEK293; also called humanized antibody VH2+VL3
- geometric mean [1]: 178
- geometric mean [2]: 2.74
- geometric mean [3]: 26.2
- geometric mean [4]: 11.8
- geometric mean [5]: 3.25
- geometric mean [6]: 60.4
- geometric mean [7]: 167
- geometric mean [8]: 4.03
- geometric mean [9]: 2.73
- EC50 [10]: 45.4 nM
- geometric mean [11]: 124
- geometric mean [12]: 2.83
- geometric mean [13]: 147
- koff (MUC1-SEA-His protein): 0.0124 s⁻¹

B4: VH3 + VL3 (antibody, V domains shown)
VH: B2 VH with T76I, V79A, S85R, E89D
VL: B3 VL
notes: Humanized IgG expressed in HEK293; also called humanized antibody VH3+VL3
- geometric mean [1]: 148
- geometric mean [2]: 2.65
- geometric mean [3]: 27.3
- geometric mean [4]: 7.91
- geometric mean [5]: 3.64
- geometric mean [6]: 77.2
- geometric mean [7]: 154
- geometric mean [8]: 5.77
- geometric mean [9]: 2.61
- EC50 [10]: 30.9 nM
- geometric mean [11]: 134
- geometric mean [12]: 2.95
- geometric mean [13]: 151
- koff (MUC1-SEA-His protein): 0.0152 s⁻¹

B5: VH1 + VL4 (antibody, V domains shown)
VH: B2 VH with A16S, M70I, R72A, T74K, V79A
VL: B2 VL
notes: Humanized IgG expressed in HEK293; also called humanized antibody VH1+VL4
- geometric mean [1]: 141
- geometric mean [2]: 2.85
- geometric mean [3]: 27.7
- geometric mean [4]: 6.83
- geometric mean [5]: 3.16
- geometric mean [6]: 73.3
- geometric mean [7]: 142
- geometric mean [8]: 4.1
- geometric mean [9]: 2.82
- EC50 [10]: 31.9 nM
- geometric mean [11]: 111
- geometric mean [12]: 2.86
- geometric mean [13]: 132
- koff (MUC1-SEA-His protein): 0.0124 s⁻¹

B6: VH3 + VL4 (antibody, V domains shown)
VH: B2 VH with T76I, V79A, S85R, E89D
VL: B2 VL
notes: Humanized IgG expressed in HEK293; also called humanized antibody VH3+VL4
- geometric mean [1]: 235
- geometric mean [2]: 19.5
- geometric mean [3]: 54.6
- geometric mean [4]: 22.2
- geometric mean [5]: 19
- geometric mean [6]: 130
- geometric mean [7]: 227
- geometric mean [8]: 12
- geometric mean [9]: 9.23
- EC50 [10]: 33.1 nM
- geometric mean [11]: 171
- geometric mean [12]: 25.6
- geometric mean [13]: 208
- koff (MUC1-SEA-His protein): 0.00902 s⁻¹
